The record followed here is article PMC10673995, “Discovery of a novel cardiac-specific myosin modulator using artificial intelligence-based virtual screening” (Nature Communications, 2023).

pKd: −log10 of the molar value.

The experiment deals with myosin S2 tail domain (UniProt P12883). Kind of experiment: MST; Monolith NT.115; 100 nmol/L Alexa647-labeled protein fixed, partner titrated (which was labeled is not told); 20 mmol/L Mops pH 7, 1 mmol/L MgCl2, 50 mmol/L KCl, 1 mmol/L DTT, 0.05% Tween-20; various nucleotides, with and without F10.
myosin S2 tail domain, sequence (P12883 whole entry, the tested form may be a part): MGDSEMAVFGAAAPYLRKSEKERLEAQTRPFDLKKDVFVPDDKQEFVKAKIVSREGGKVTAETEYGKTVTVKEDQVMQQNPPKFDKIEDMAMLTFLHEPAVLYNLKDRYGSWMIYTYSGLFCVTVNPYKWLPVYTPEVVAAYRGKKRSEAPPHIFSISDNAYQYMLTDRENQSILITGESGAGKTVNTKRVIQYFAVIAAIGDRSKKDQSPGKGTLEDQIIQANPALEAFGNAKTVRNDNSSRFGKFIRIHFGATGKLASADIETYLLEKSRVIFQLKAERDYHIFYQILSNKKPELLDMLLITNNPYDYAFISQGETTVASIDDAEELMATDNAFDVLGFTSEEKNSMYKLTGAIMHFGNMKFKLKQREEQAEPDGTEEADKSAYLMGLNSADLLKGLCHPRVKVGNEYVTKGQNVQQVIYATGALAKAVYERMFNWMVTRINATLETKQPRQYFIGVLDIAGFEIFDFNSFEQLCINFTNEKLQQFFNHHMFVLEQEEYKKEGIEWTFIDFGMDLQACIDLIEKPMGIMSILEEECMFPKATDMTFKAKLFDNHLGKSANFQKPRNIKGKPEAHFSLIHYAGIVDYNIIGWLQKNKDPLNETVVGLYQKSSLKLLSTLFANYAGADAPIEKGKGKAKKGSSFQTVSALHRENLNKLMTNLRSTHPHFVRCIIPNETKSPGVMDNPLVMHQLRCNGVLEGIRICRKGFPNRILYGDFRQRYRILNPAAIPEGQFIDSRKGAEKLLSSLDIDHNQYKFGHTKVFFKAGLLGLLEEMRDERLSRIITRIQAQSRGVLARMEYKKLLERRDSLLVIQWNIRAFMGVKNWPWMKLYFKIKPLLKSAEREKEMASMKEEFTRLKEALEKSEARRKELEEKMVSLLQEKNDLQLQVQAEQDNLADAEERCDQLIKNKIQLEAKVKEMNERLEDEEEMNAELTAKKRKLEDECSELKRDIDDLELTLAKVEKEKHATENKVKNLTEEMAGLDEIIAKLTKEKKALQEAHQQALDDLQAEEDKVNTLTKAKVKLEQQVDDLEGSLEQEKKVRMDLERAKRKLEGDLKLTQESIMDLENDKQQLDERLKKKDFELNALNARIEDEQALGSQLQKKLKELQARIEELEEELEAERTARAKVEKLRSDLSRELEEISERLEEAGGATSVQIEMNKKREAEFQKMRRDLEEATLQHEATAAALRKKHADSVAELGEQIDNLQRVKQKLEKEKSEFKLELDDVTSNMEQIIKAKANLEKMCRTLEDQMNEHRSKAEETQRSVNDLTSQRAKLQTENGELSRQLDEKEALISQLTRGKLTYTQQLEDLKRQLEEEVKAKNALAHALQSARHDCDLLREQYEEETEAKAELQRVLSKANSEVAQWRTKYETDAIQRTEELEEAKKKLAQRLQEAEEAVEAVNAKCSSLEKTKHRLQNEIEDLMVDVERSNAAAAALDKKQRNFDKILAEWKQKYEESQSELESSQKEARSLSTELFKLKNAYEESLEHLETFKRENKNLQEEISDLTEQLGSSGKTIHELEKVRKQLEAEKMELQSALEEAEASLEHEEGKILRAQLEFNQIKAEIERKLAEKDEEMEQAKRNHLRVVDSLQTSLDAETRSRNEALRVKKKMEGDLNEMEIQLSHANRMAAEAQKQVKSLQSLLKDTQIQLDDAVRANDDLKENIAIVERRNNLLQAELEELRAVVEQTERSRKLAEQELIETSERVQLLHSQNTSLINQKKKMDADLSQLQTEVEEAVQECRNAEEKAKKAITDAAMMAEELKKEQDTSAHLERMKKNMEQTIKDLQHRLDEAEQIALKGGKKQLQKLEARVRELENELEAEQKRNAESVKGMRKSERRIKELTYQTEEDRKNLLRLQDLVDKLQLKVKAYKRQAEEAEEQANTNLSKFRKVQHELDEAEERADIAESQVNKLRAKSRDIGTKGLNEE

A word on the pKd: it is the negative decadic logarithm of the Kd, by convention in mol/L. “bovine β-cardiac myosin S1 (from UniProt Q9BE39 1-1935; P85100 1-199) (domain or fragment)”: the pKd was 4.82.
